Measured values as given in US20240151728A1 (KOREA INSTITUTE OF SCIENCE AND TECHNOLOGY, published 2024).
Changes are numbered by the printed parent chain.

Key:
[1] = target: T1, hMSLN recombinant protein (human mesothelin) (human, UniProt Q13421 296-598, limits assumed); test: ELISA: 100 ng purified scFv coated per well, biotinylated hMSLN titrated, streptavidin-HRP, A450; the concentration varied is that of hMSLN
T1 construct: Amine-coupled to a CM5 chip for SPR; also called recombinant mesothelin (MSLN); biotinylated hMSLN recombinant protein
T1 sequence (Q13421 other isoform, or with tags, fused parts or gaps limits assumed): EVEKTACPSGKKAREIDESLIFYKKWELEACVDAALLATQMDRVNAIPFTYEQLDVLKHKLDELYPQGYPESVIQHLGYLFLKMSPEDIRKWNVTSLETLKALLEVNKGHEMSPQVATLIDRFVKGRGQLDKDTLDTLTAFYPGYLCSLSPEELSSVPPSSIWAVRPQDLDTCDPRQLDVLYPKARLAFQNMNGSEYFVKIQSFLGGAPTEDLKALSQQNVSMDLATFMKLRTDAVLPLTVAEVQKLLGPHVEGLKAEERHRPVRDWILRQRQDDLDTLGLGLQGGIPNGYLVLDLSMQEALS
Description: (§1) Specifically, each well of the 96-well immune plate was coated with 100 ng of the scFv variants produced as recombinant proteins at 4° C. for 16 hours. After adding 100 μl of pH 7.4 PBS supplemented with 3% bovine serum albumin (BSA) to each well, the cells were incubated at room temperature for 1 hour, and the plate was washed three times with 350 μl of PBS-T. The biotinylated hMSLN recombinant protein was diluted to 1 μM, 200 nM, 40 nM, 8 nM, 1.6 nM, and 0.32 nM in the pH 7.4 PBS, and reacted at room temperature for 1 hour with each of the coated scFv antibodies. Afterwards, the cells were washed three times with 350 μl of PBS-T per well. Then, 50 μl of HRP-conjugated streptavidin diluted at 1:15,000 in the pH 7.4 PBS was added to the cells followed by incubation of the cells at room temperature for 1 hour, and washing three times with 350 μl of PBS-T. After adding 50 μl of TMB, the cells were incubated at room temperature for 15 minutes, the reaction was terminated by adding 50 μl of 2 M H₂SO₄, and the absorbance at 450 nm was measured.

[2] = target: T1, hMSLN recombinant protein (human …); test: SPR, BIAcore T200; hMSLN amine-coupled on CM5 chip, scFv injected; 1:1 Langmuir model; mean of three experiments
Description: (§2) To measure the affinity of the selected variants, surface plasmon resonance (SPR) was performed by using a BIAcore T200 device. For analysis, hMSLN was immobilized on a CM5 sensor chip by using an amine coupling method. Experiments were performed by using HBS-EP buffer, and diluted samples of each scFv variant were injected at a rate of 30 μl/min for 120 seconds and dissociated for 5 minutes. After the first experiment, 5 mM NaOH and 0.5 M arginine at pH 8.0 were sequentially injected for 30 seconds to regenerate the chip. For each scFv variant, three separate experiments were averaged to determine a dissociation constant, and each dissociation constant was determined by using a 1:1 Langmuir model in BIAevaluation 3.2 software.

[3] = target: T2, hMSLN recombinant protein (human mesothelin) (human, UniProt Q13421 296-598); test: as above
T2 sequence (Q13421 other isoform, or with tags, fused parts or gaps): as the sequence (Q13421 other isoform, or with tags, fused parts or gaps limits assumed) above
Description: as §2

[4] = target: T2, hMSLN recombinant protein (human …); test: ELISA: 100 ng purified scFv coated per well, biotinylated hMSLN titrated, streptavidin-HRP, A450; the concentration varied is that of hMSLN
Description: as §1

B1: wild-type M5 scFv (DFDY) (scFv)
scFv: QVQLVQSGAEVEKPGASVKVSCKASGYTFTDYYMHWVRQAPGQGLEWMGWINPNSGGTNYAQKFQGRVTMTRDTSISTAYMELSRLRSDDTAVYYCASGWDFDYWGQGTLVTVSSGGGGSGGGGSGGGGSGGGGSDIVMTQSPSSLSASVGDRVTITCRASQSIRYYLSWYQQKPGKAPKLLIYTASILQNGVPSRFSGSGSGTDFTLTISSLQPEDFATYYCLQTYTTPDFGPGTKVEIK
notes: Recombinant protein made in E. coli BL21(DE3) and purified; also called WT M5 scFv; WT DFDY
- EC50 (read off the curve) [1]: ~40 nM
- Kd [2]: 11.2 nM

B2: M5 scFv variant DVAY (scFv)
chain: B1 scFv with F102V, D103A
- Kd [3]: 121 nM

B3: DGAD (scFv)
chain: B1 scFv with F102G, D103A, Y104D
- EC50 (read off the curve) [4]: ~40 nM
